Biological target: AV-1980R recombinant protein (3xTau2-18-MultiTEP) (human) (UniProt P10636)
Assay: AUC; protein in 3.2 M urea

stoichiometry N: 4
Substance: AV-1980R recombinant protein (3xTau2-18-MultiTEP) (from UniProt P10636 2-18; P10636 2-18; P10636 2-18)
